Experimental findings from paper PMC1559926 are described below.

In one assay the target is Caveolin-1 61-101 (UniProt Q03135). Nature of the assay: given as Ka.
A further assay concerns the target Caveolin-1 135-178 (UniProt Q03135). Nature of the assay: given as Ka.

Sequence of PrP, P04925 (P04925 23-230): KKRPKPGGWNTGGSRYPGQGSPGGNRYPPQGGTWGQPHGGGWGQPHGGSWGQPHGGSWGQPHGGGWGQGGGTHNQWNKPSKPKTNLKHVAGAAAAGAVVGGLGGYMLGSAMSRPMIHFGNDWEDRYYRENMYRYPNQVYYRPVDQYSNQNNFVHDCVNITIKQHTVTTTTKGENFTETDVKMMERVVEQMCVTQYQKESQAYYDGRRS
Sequence of Caveolin-1 61-101 (Q03135 61-101): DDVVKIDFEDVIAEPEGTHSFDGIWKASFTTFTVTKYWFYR
Sequence of Caveolin-1 135-178 (Q03135 135-178): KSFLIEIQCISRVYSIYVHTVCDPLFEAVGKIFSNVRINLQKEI

As a reminder, the Kd is the concentration at which binding is half-saturated. High values mean a looser complex, low ones a tighter complex. As for PrP, P04925, the equilibrium dissociation constant (Kd) with Caveolin-1 61-101 and with Caveolin-1 135-178 was 1.18 nM in each case.
